Measured values as given in PMC3378860.

Columns and labels:
Experiment in all cases: EMSA
[1] = test system: I-S-I complex (ISW2 with Snf2 ATPase domain) ((yeast))
ISW2 complex ((yeast)) = test system: ISW2 complex ((yeast))
[2] = test system: SWI/SNF complex ((yeast))

Work on 217 bp DNA yielded a Kd [1] of 31 nM, a Kd (ISW2 complex ((yeast))) of 25 nM and a Kd [2] of 20 nM.
